Consider one molecule from patent US10772928B2, “Modulation and detection of a neuronal alternative splicing regulatory network for treatment and diagnosis of neurological disorders” (The Governing Council of the University of Toronto, priority 2014, dated 2020).

Assay [1] concerns the target T1, nSR100 (Mus musculus, UniProt Q8BKA3).
T1 construct: host or cells: mouse N2A cells
T1 sequence (Q8BKA3 1-608): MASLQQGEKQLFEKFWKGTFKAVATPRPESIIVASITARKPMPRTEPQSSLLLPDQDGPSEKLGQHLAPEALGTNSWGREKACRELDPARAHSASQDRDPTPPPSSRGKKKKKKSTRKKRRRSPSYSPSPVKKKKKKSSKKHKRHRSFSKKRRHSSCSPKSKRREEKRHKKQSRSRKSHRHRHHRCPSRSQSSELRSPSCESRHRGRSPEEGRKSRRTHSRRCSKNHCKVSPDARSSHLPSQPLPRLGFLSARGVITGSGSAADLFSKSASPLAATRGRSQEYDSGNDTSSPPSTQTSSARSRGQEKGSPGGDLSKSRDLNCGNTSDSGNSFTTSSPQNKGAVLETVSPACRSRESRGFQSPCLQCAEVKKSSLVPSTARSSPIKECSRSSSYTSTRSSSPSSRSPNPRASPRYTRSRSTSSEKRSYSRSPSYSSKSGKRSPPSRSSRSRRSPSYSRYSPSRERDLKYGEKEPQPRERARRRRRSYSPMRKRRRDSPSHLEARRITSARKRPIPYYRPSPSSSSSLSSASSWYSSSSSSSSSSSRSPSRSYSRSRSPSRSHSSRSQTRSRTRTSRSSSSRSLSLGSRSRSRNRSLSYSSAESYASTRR
Description: Regulation by nSR100: microexon inclusion level (PSI) by RNA-Seq in mouse N2A cells depleted of nSR100 (Table 2). It is filed as cell-based. The conditions noted are these: YES/NO. An excerpt: A-H) Percent of neural-regulated exons within each length class that is affected at 15<|ΔPSI|<25 and |ΔPSI|>25 by (A) RBFOX1 knockdown in human neural precursor cells; (B) MBNL1 and MBNL2 double knockdown in human HeLa cells; (C) ESRP1 knockdown in human PNT2 cells; (D) nSR100/Srrm4 knockdown in mouse N2A cells; (E) Ptbp1 knockdown in mouse N2A cells; (F) Ptbp2 knockout in mouse cortex (P1 stage); (G) Ptbp2 knockout in mouse embryonic brain (18.5 days post-conception); and (H) Rbfox1 knockout. p values correspond to two-sided proportion tests of regulated versus non-regulated events. I) Expression of nSR100 in different isolated brain cell types (Zhang et al., 2014). Error bars indicate SEM. […]
An RNA-Seq analysis pipeline was developed to detect and quantify all AS event classes involving all hypothetically possible splice junctions formed by the usage of annotated and unannotated splice sites, including those that demarcate microexons. […]
A multi-module analysis pipeline was developed that uses RNA-Seq, expressed sequence tag (EST) and cDNA data, as well as gene annotations and evolutionary conservation, to assemble libraries of exon-exon-junctions (EEJs) for subsequent read alignment to detect and quantify AS events in RNA-Seq data. […] Alt3 or Alt5 events were quantified based on the fraction of reads supporting the usage of each alternative splice site. […]

In assay [2] the target is T1, nSR100. Kind of assay: AP-MS nSR100 interaction partners from mouse N2A cells (Table 5). It is filed as binding. The conditions noted are these: for Spectra (number of spectra for the prey in the purification of the bait): AP-MS.
Description: By applying affinity purification coupled to mass-spectrometry (AP-MS), several interaction nSR100 partner proteins were detected that provide insight into mechanisms of post-translational regulation of nSR100 levels.

B1: Fip1l1 (protein, UniProt Q9D824 1-581, looked up)
Pre-mRNA 3'-end-processing …: MSAGEVERLVELSGGTGGDEEEEWLYGGPWDVHVHSDLAKDLDENEVERPEEENASANPPSGIEEEAAENGVAKPKVTETEDDSDSDSDDDEDDVHVTIGDIKTGAPQYGSYGTAPVNLNIKAGGRVYGNTGTKVKGVDLDAPGSINGVPLLEVDLDSFEDKPWRKPGADLSDYFNYGFNEDTWKAYCEKQKRIRMGLEVIPVTSTTNKITVQQGRTGNSEKEAALPSTKAEFTSPPSLFKTGLPPSRNSTSSQSQTSTASRKASSSVGKWQDRYGRAESPDLRRLPGAIDVIGQTITISRVEGRRRANENSNIQVLSDRSATEVDNNFSKPPPFFPPGAPPTHLPPPPFLPPPPTVSTAPPLIPPPGIPITVPPPGFPPPPGAPPPSLIPTIESGHSSGYDSRSARAFPYGNVAFPHLTSSAPSWPSLVDTTKQWDYYARREKDRDRDRERDRDRERERDRDRERERTRERERERDHSPTPSVFNSDEERYRYREYAERGYERHRASREKEERHRERRHREKEETRHKSSRSNSRRRHESEEGDSHRRHKHKKSKRSKEGKEAGSEPVPEQESTEAAPAE
Take B1: the “Regulation by nSR100” value in the assay with nSR100 [1] was “NO (regulation may occur but does not meet a miminal threshold change of PSI≥10)”. For the same molecule, in the assay with nSR100 [2] (bait Srrm4), the “AvgP (average of the SAINT scores)” value is 1. Further, the “MaxP (maximal SAINT score)” value with nSR100 [2] (bait Srrm4) stood at 1. Also, in the assay with nSR100 [2] (bait Srrm4, 0.1 added to prevent division by 0), the “FoldChange between the prey Avg spectra of the bait and control purifications” value was determined as 90. The “AvgSpec (average number of spectra per replicate)” value with nSR100 [2] (bait Srrm4, 2 replicates) was 9. The “Spectra (number of spectra for the prey in the purification of the bait)” value in the assay with nSR100 [2] (bait Srrm4, biological replicate 1 (first number of the cell)) was found to be 8; with nSR100 [2] (bait Srrm4, biological replicate 2 (second number of the cell)), 10. This molecule showed a SpecSum with nSR100 [2] (bait Srrm4, sum of spectra over 2 replicates) of 18.
